Experiment: soluble fraction after stress (log2 fold change); higher = more stays soluble; pooled small domains, quantitative proteomics
Settings: stress: 50 degC
Procedure, shortened: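 The stress applied to every library was 50°C. These custom libraries of small protein domains were pooled and measured at high throughput with quantitative proteomics as the read-out. Aggregation propensity is expressed as the base-two logarithm of the fold change in how much of each protein remains soluble. The higher the value, the more of that protein stays in solution.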

Sequence	soluble fraction (log2)
HMGEENLKYPLLTDGSVKTTVLEAIDKDEKWLREELAKQGYDDLSKLFLVDYLGGQLVVTPY	0.277
HMKRDNETRRRIVAAAEELFRAKGLDGVNMRELAEMAGVNKGLLHYYFKTKQALFREILVGQMAL	-1.05
HMHTTIIVASRDIAAGSVLTSHDLSSVAWVGGAVPKGSYTAADLAVGKTAFTAFQQGEPILESRLAS	-0.00332
HMDFDFHALGREIKRKRKDKGWTQEYLAQLLDRTPRSIMYMENRGQHPSLNILFKIATLLEISIDQFFF	0.194
HMADGKWTLTDAGYTFTYSDGRKARGTWEDIDGEWYHFDRNGIMETGWKTVGNIRYHFNQDGSL	-0.185
HMEDWTPERFVGAFVSGGPALRDEILLAATKDLSHAQATRLLKLAEARGLVHRSQPGPSERVRFVVARK	-0.258
HMPNSIKAPAYLHNIARIYDHVLIDVEKASSAYEKLIKKYPNHPLSINAKLYLENAFNRSDEELLNMIKEN	-0.798
HMVSMSFDDYVNDAKEYESEGDKDKAYNSYLEAYKLNKSSEEVLDYLIDNTEDVTLKLNYVYEYLDL	-0.0996
HMNTKQRTAVMRILKQSSDPVSADDVFAALKDEYPSLALSTVYRNLERFADESMVKKDVWSDGIVRYSLAD	-0.189
HMEPTPREIVVQQLGYRGLEVLGNAEYQFPKETQIIILKLAELISSGSVTETLEGGKLLALFRGVGINVR	-1.59
HMAVTGRVDLRIKPWGYVSVDGAAKVSSPPTMQLKLAPGRHEIEITNPAGAAVTKTVDVIAGKSVTVQHN	0.0967
HMNIQGIFGRNLKQKRLEKGMTQEQLAEKAGVSTDTVKRYESGKYDGIRLDMAWYMANALDTPLQALLPP	0.367
HMNKEQIASNIAEARKRSGLNQSELARRLGIRPQSVQQWEKGTATPKLDRLTAIAQVLGVSLESLTG	-0.0259
HMYDEKTLRKAVLDYVRDNDDGRLDLMKIDSYLTSRYGNIDYAALGYNRLSMFISSFPELRRNSNYVTLRK	-0.164
HMADEIQLVVQVNGKLRGRIMVAPDASREEIEKTALADADVSRFLGDTPVKKVIIVPKRLVNIVAPAPK	-0.0114
HMDTFEITVEESDIDKRIDLFLAGNLESFSRSYIQDLIKKGKATISGKPVKANYRLREGDSVVLSIPKPK	-0.227
HMREELIALYRAIARLSEDEQELLNLFYFARRPLSEIAQLTGMTPGAAKTRLYRARRHLRREMEEDGYG	-0.986
HMRQMIIIMQKQAAASSVAAVVEFIRSKGLREHISPGAERTIIGAVGDERVFLPQELESLPQVERAIRVL	-1.14
HMVLTGTIKKYNNERGFGFISTSNFGDVFFHIKDFQKGEQPIPGREVYFEVVKKENKKRAIHVYYSD	-1.02

Sequence	soluble fraction (log2)
HMVTINTASLEKAIADAKAVVKESYTTDSYNAMKAVLDEAEDLLKEEAQDQDTIDAKTEALNAAIEALVKR	0.0369
HMKAQVKSVLDDIPGIGQTRRKALMRYFKSLEKIREASVEELKEADAMNERAAQSVYAFFHK	-0.471
HMESRTQVYDFYKDLFREKRRPLRAEEMLSALKSQRGIVGVNQYQIIEQHGIVRLSGSGRSALYWDTDLGS	-2.74
HMTKQNVVPLMYRMIDTLEQFIKADVPFNIETRLARVERLRETMVSSSVTTSEKFRQVLEAYTIETD	-0.924
HMKTRQVTVRNGRIEIFDKRFSTERLVFTAANLPVLEREGEVFTAGIPDSRDFINLWARDGSFAGSVPRV	-1.06
HMADTIEVVVQVNGKVRAKISTSPEVFADSTKLQELALADANVQKFIAGQTIRKVIIPKGTKLLNIV	-0.227
HMPLSLESVSEGGRNDTAARIAGYLIAKGLNVDFARFFLQSWNTKNKPPLDDTEIDTIVNSIMKTHERKNQ	-0.361
HMTPKTSVPKPGQTVVVRKGDTIYALARIHDITPADLIAWNRLDNPSQIYPGQVIRLYPQGA	-0.107
HMSEYNPGIYRVTDPALNIRTGPGVEYPVVGVIKDQGSYTITEIRNKSWGRLLSGAGSTAIKHIVFT	0.0941
HMNQNIYVPKLEGLQIEEASSILKSKGLNIEITDSIFRKDAVPGAIIEQTPKPNSRVKTGRNIYVSIYSK	-0.0536
HMHITSFTIKQADQIVGTTPVREQAVGAAKARAQQTGTPVSVIAYLDTGEEREVIIHPDGTN	0.324
HMAEDLRTLDGIDEDLLRDLAQAGITTRDGLAELSIDELREITGVEPGEAEKIILAARAHWFETDE	-0.135
HMVNIAVMTVSDTRTEADDKSGSLLVSKIEGDGHVLADRAIITDDVPRIIAKLKEWIESPQVDVVVT	0.0468
HMSASSEALKTAVRKVLLNNRMTQDRMARDAGLSGSALSQWLHGKYQGDVPALEGRLAAWLADTQAS	0.0546
HMTSNEKARNAASAERRADIVAAARELYEEQGLSKTSVQDITNRMGVARSLFYHYFPDKEAVTSAVLDDYV	0.244
HMVQIFIPVVHDDHWFLIVFSREEDTFYVLDSLPSLSRISTINGIISTLKEHLQQASVGPQYSVKVLPVK	-0.172
HMTNLTPKQQQIYQFIRASTQANGYPPTLREIGQQVGVRSPSTVKYHLDNLRTLGLLHWDGGKTRSITLP	-0.372
HMLIADSDALRSQIESILNGNPNEVASFRAGKESLMGWFVGQVMRSTGGKADPKRTRELLQELLTK	-0.102
HMQSREISYSEFVTAVEAGDVRNVTLDGEQVRFRRADGSDYVTIRPEDAEVTKLLMANDIPVRAEP	0.169
